Several values for one entry are separate records, joined by “and”; a condition that tells them apart may be missing. Equal values may be shown once.
Experiments:
[1] = molecular target: SRP (Ffh bound to 4.5 S RNA) with DACM-labeled Ffh Cys235 (UniProt P0AGD7); assay: FRET or BRET
[2] = molecular target: acrylodan-labeled FtsY Cys356 (UniProt P10121); assay: other fluorescence titration

Substance | Kd [1] | fold destabilisation of the early complex by SecYEG (against no SecYEG) [1] | fold stabilisation of the activated complex by SecYEG (against no SecYEG) [2]
BODIPY-FL-labeled FtsY Cys487 (full-length FtsY) (from UniProt P10121 1-497) (receptor) | 162 nM | > 15 fold | –
Signal recognition particle (SRP; Ffh bound to 4.5 S RNA) (from UniProt P0AGD7 1-453) (complex) | – | – | 2 fold and 4 fold
